# Laboratory results taken from the supplement of paper PMC10567573.
# B1: DCAF4 (parent)
# chain: TTKCVRQYEGHVNEYAYLPLHVHE
# B2: LPCAT4 (parent)
# chain: HDPLYGKLFSTYLRPPHTSRGTSQ
# Variants of: B1
# Assay: protein stability index of a GFP-peptide fusion (GPS, HEK-293T) (PSI 1-6); higher = more stable
# Settings: c terminus: a fixed tail appended
# 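Note: lentivirally expressed fusions sorted by FACS into six bins by GFP to DsRed ratio, PSI derived from sequencing read proportions per bin multiplied by bin number.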
row,Variant,protein stability index
1,V22M,3.06
2,V22D,3.85
3,Y15M,2.96
4,Y17V,2.81
5,A16W,1.84
6,V12W,2.07
7,V5M,2.18
8,T2K,2.64
9,Y15V,3
10,E14P,2.57
11,Y8Q,3.39
12,H23W,1.9
13,H23N,2.81
14,H23D,3.45
15,A16K,2.71
16,Y15K,2.85
17,V22N,3.19
18,Y17A,4.37
19,V5P,2.95
20,V12E,3.35
21,P19S,1.46
22,K3D,3.56
23,Q7R,2.28
24,Q7C,2.15
25,V22C,2.54

row,Variant,protein stability index
1,Q7F,1.87
2,H21P,2.63
3,P19W,2.57
4,H23I,3.56
5,H23F,1.46
6,C4R,2.69
7,R6L,2.18
8,K3V,2.02
9,R6K,2.63
10,N13D,2.35
11,T2D,3.24
12,Y8T,3.15
13,H21E,3.27
14,Q7T,2.97
15,R6S,2.01
16,V12A,3.03
17,V22F,2.01
18,E14W,1.14
19,V12S,2.78
20,H21G,2.06
21,A16M,2.34
22,V5N,2.27
23,Y8R,2.94
24,T2Q,2.41
25,Y17Q,3.27

row,Variant,protein stability index
1,Y15E,3.6
2,V5K,1.99
3,G10W,1.65
4,E9S,2.04
5,Y8A,2.65
6,L20R,3.21
7,H21I,2.12
8,L20Q,3.06
9,L18P,2.75
10,V12R,2.6
11,Y15T,2.59
12,K3W,1.82
13,A16P,3.02
14,Y17C,3.51
15,G10N,2.11
16,V22H,2.96
17,V5F,2.24
18,Y17P,3.82
19,H23P,3.32
20,G10Y,2.29
21,Y17E,4.23
22,T1Y,1.69
23,T1Q,2.74
24,G10R,2.3
25,P19L,2.16

row,Variant,protein stability index
1,H11Y,2.84
2,N13F,2.02
3,T2F,2.47
4,H11V,3.56
5,E24A,1.17
6,H11W,1.81
7,C4T,3.42
8,Q7E,2.96
9,Y17M,3.06
10,K3Q,3.25
11,T2G,2.69
12,P19M,2.47
13,T2N,2.99
14,V5A,2.67
15,E14C,2.03
16,Q7M,2.19
17,V12T,2.85
18,E9M,2.32
19,H23R,2.48
20,P19V,2.22
21,E24L,2.14
22,E14V,1.44
23,L18T,2.79
24,N13G,3.04
25,C4D,3.76

# Variants of: B2
# Assay: as above
# Settings: c terminus: a fixed tail appended
row,Variant,protein stability index
1,H1A,4.01
2,H1C,3.66
3,H1D,3.52
4,H1E,2.83
5,H1F,2.12
6,H1G,2.88
7,H1I,3.4
8,H1K,3.32
9,H1L,4.22
10,H1M,2.98
11,H1N,3.2
12,H1P,3.1
13,H1Q,3.18
14,H1R,3.09
15,H1S,3.68
16,H1T,3.96
17,H1V,4
18,H1W,2.38
19,D2A,2.37
20,D2C,2.28
21,D2E,2.74
22,D2F,2.27
23,D2G,2.56

row,Variant,protein stability index
1,D2H,2.19
2,D2I,1.96
3,D2K,2.63
4,D2L,2.34
5,D2M,1.91
6,D2N,2.1
7,D2P,2.8
8,D2Q,2.44
9,D2R,2.63
10,D2S,2.5
11,D2T,1.98
12,D2V,1.85
13,D2W,2.86
14,D2Y,2.62
15,P3A,2.5
16,P3C,2.17
17,P3D,3.02
18,P3E,3.14
19,P3F,2.12
20,P3G,2.35
21,P3H,2.98
22,P3I,2.29
23,P3K,2.54

row,Variant,protein stability index
1,P3L,2.25
2,P3M,2.27
3,P3N,2.44
4,P3Q,2.38
5,P3R,2.55
6,P3S,2.3
7,P3T,2.7
8,P3V,2.76
9,P3W,2.03
10,P3Y,2.55
11,L4A,2.32
12,L4C,3.28
13,L4D,3.74
14,L4E,3.46
15,L4F,3.22
16,L4G,3.3
17,L4H,3.22
18,L4I,2.04
19,L4K,1.9
20,L4M,3.29
21,L4N,2.28
